Target: the molecule itself
Test: FRET or BRET; HEK293T biosensor cells co-expressing the CFP and the YFP fusion of one aSyn variant, seeded with increasing amounts of sonicated recombinant full-length aSyn(WT) fibrils with Lipofectamine 2000, 48 h, CFP-YFP FRET by flow cytometry, normalized to aSyn(WT) with 100 nM fibrils

B1: aSyn amino acids 35 to 110, CFP/YFP (domain or fragment)
chain: not shown
  fold sensitivity of the biosensor against full-length WT aSyn: ≥ 4 fold

Source: paper PMC10610913, “Saturation mutagenesis of α-synuclein reveals monomer fold that modulates aggregation” (Science Advances, 2023)
